B1: BMP4: Recombinant BMP4 protein obtained from Stemgent (protein, UniProt P12644 293-408, looked up)
Bone morphogenetic protein 4: SPKHHSQRARKKNKNCRRHSLYVDFSDVGWNDWIVAPPGYQAFYCHGDCPFPLADHLNSTNHAIVQTLVNSVNSSIPKACCVPTELSAISMLYLDEYDKVVLKNYQEMVVEGCGCR
B2: SFRP1: Recombinant human SFRP1 protein (R&D Systems), secreted decoy receptor binding canonical and non-canonical Wnt ligands (protein, UniProt Q8N474 32-314, looked up)
Secreted frizzled-related …: SEYDYVSFQSDIGPYQSGRFYTKPPQCVDIPADLRLCHNVGYKKMVLPNLLEHETMAEVKQQASSWVPLLNKNCHAGTQVFLCSLFAPVCLDRPIYPCRWLCEAVRDSCEPVMQFFGFYWPEMLKCDKFPEGDVCIAMTPPNATEASKPQGTTVCPPCDNELKSEAIIEHLCASEFALRMKIKEVKKENGDKKIVPKKKKPLKLGPIKKKDLKKLVLYLKNGADCPCHQLDNLSHHFLIMGRKVKSQYLLTAIHKWDKKNKEFKNFMKKMKNHECPTFQSVFK

How the values were obtained:
MSP-RAS cells [1] = assay: Orthotopic tumor formation and metastasis after ex vivo treatment of MSP-RAS tumorspheres; assay type: in vivo, mice; conditions: for reduction in lung metastases / reduction of metastatic foci in the liver: foci normalized by primary tumor weight, ex vivo treatment; for reduction of tumor weight / reduction of metastatic foci in the liver: on average
Description: (§1) FIGS. 4A-4G. Autocrine Signaling controls tumorigenicity and metastasis of MSP-RAS cells. (FIG. 4A) Migration assay: RAS-transformed MSP (MSP-RAS) were seeded in Boyden Chamber migration assays and recombinant SFRP1 (1 μg/ml) and BMP4 protein (0.5 μg/ml) were added; *control vs. single treatment, p<1×10^−8, **single vs. double treatment with SFRP1 and BMP4 (S+B), p<1×10^−4, n=3. (FIG. 4B) Tumorsphere assay: SFRP1 (1 μg/ml) and BMP4 protein (0.5 μg/ml) were added daily during primary sphere formation (5 days), spheres were dispersed and seeded for secondary sphere formation in the absence of further treatment; #control primary vs. secondary sphere formation, p=0.001; *control vs. single treatment, p<1×10^−4, **single vs. double treatment with SFRP1 and BMP4 (S+B), p<0.01, n(tumorspheres)/1000 cells, n=6. (FIG. 4C) Flow cytometry: CD44 and CD24 cell-surface markers of dissociated primary tumorspheres as described in (B). (FIG. 4D) Orthotopic tumor formation after ex vivo treatment during tumorsphere formation: primary tumorspheres as generated in (B) were pooled, dissociated and 1.0×10^5 cells were implanted in the fat pads of mice; shown are tumor weight and incidence, *indicates absence of tumor, n=5 mice/group. (FIG. 4E) Lung metastasis: fluorescence microscopy images of the major left lung lobe showing GFP-expressing metastatic nodules and quantification of the number of lung surface metastases; *control vs. SFRP1 treatment, p<0.05, **SFRP1 vs. BMP4 or double treatment (S+B), p<0.05, n=5 mice/group. (FIG. 4F) Liver metastasis: fluorescence microscopy images of the liver surface showing GFP-expressing micro-metastatic nodules after implantation of cells as described in (D) and quantification: 5 fields of liver surface were counted per mouse, *control vs. single treatment, p<0.05, **single vs. double treatment (S+B), p<0.05, n=5 mice/group. (FIG. 4G) Tumorigenicity assay: MSP-RAS cells suspended in PBS containing SFRP1 (1 μg/ml), BMP4 (0.5 μg/ml), and a combination of both (S+B) were implanted subcutaneously in mice at indicated cell numbers. In addition, 20 μl of PBS or PBS with proteins at indicated doses was injected peri-tumorally at 1, 2, 3 and 7 days after implanting the MSP-RAS cells.
We also wished to determine whether in vitro exposure to SFRP1 and BMP4 influenced subsequent in vivo behavior of MSP-RAS cells. For this purpose, we prepared single-cell suspensions from primary control MSP-RAS tumorspheres or from the residual tumorspheres that had formed during a 5 day in vitro treatment with SFRP1, BMP4 or a combination of both. Following injection of these populations into the mammary fat pads of mice, we noted that the tumors that originated from mammospheres of MSP-RAS cells that had been exposed ex vivo to either SFRP1, BMP4 or a combination of both were reduced in weight by 3-fold on average (FIG. 4D). However, we only observed a modest reduction in tumor incidence for the BMP4 and combination-treated groups (30%, FIG. 4D).
Animal studies. All research involving animals complied with protocols approved by the MIT Committee on Animal Care. For tumorigenicity studies, indicated numbers of cells in 100 μL of Matrigel (BD Biosciences) diluted 1:4 in PBS were injected subcutaneously in the left and right flanks of age-matched female nude (nu/nu) mice. Mice were sacrificed and necropsied after 10 weeks. For orthotopic injections, 1×10^5 cells suspended in PBS were injected into each of the two inguinal mammary glands of age-matched female NOD-SCID mouse. Mice were sacrificed after 10 weeks or when tumors reached a diameter >1 cm. Lung surface metastases were counted using a fluorescent microscope within 3 hr of specimen isolation.

MSP-RAS cells [2] = assay: Tumorsphere assay, MSP-RAS cells; assay type: cell-based, human; conditions: for reduction of primary tumorsphere formation: SFRP1 1 μg/ml, BMP4 0.5 μg/ml daily during primary sphere formation; for reduction of secondary tumorsphere formation: treated during primary sphere formation only
Description: as §1
Mammosphere and tumorsphere assay. Assays were performed as previously described with modifications (Dontu et al., 2003): 1000 cells/well were seeded in 96-well ultra-low adhesion plates (Corning) in MEGM medium containing 1.3% methylcellulose (Stem Cell Technologies) supplemented with 20 ng/ml EGF, 10 ng/ml bFGF (both Sigma) and B27 (Gibco). Primary spheres were dissociated by trypsinization and replated for secondary sphere formation after a period of 5-7 days.

[3] = 5 day ex vivo treatment, mammary fat pad injection

| Molecule | reduction in tumor incidence (MSP-RAS cells [1]; [3]) [%] | reduction in lung metastases (MSP-RAS cells [1]) [fold] | reduction of tumor weight (MSP-RAS cells [1]; [3]) [fold] | reduction of metastatic foci in the liver (MSP-RAS cells [1]) [fold] | reduction of primary tumorsphere formation (MSP-RAS cells [2]) [%] | reduction of secondary tumorsphere formation (MSP-RAS cells [2]) [%] |
| --- | --- | --- | --- | --- | --- | --- |
| B1 | 30 | 7.5 | 3 | 5 | 40 | 40 |
| B2 | – | 2 | 3 | 2.5 | 40 | 40 |

Reference: patent US9308238B2, “Compositions and methods for modulating EMT and uses thereof” (Whitehead Institute for Biomedical Research, priority 2010, dated 2016)
